Assay [1] concerns the target T1, recombinant ECTV CrmD (cytokine response modifier D), C-terminally tagged with V5 and 6xHis (ectromelia virus (ECTV)). The assay can be described thus: SPR. A general note: In SPR one partner is held on a chip, and binding of the other changes the refractive index at the surface.
For assay [2], the target named is T1, recombinant ECTV CrmD (cytokine …). The assay can be described thus: SPR. The source holds these as a separate data set.

Results on one molecule are retold here after PMC5934441 (2018).

B1: mouse Ccl27 (ligand)
chain: LPLPSSTSCCTQLYRQPLPSRLLRRIVHMELQEADGDCHLQAVVLHLARRSVCVHPQNRSLARWLERQGKRLQGTVPSLNLVLQKKMYSHPQQQN
By Kd is commonly meant the free concentration of one partner at which half of the binding sites on the other are occupied at equilibrium, for simple one-to-one binding. As usually defined, the koff is a measure of how fast the partners let go of each other. Regarding B1, the Kd in assay [1] was found to be 5.41 nM. For the same molecule, in assay [2], the koff came out at 0.00372 s⁻¹.
